IntAct's records for PubMed 17446860

B1: Ubiquitin carboxyl-terminal hydrolase 4 (Saccharomyces cerevisiae), P32571 (parent)
chain: MEQNIISTIRDECIRHRSKYLTIAQLTAIAEAKINEFIITGKAKDQDLSSLLDKCIDILSIYKKNSKDIKNIISCKNKGAMISSNSVMIIQLNYVYYKVIHIIVTTNIPHLSEFAKIKLHKSTSDEGNGNNNNNEFQLMNIYNTLLETLLKDENIAKIKSFIKSSIKQTKLNHEQEECNLMRTGSYITSNQLNSLISSSANSASSQMEILLIDIRSRLEFNKSHIDTKNIICLEPISFKMSYSDHDLEKKSLITSPNSEIKMFQSRNLFKFIILYTDANEYNVKQQSVLLDILVNHSFEKPISDDFTKIFILESGFPGWLKSNYGRQVSSSFPSNNNIKDDSVYINGNTSGLSLQHLPKMSPSIRHSMDDSMKEMLVAPTPLNHLQQQQQQQSDNDHVLKRSSSFKKLFSNYTSPNPKNSNSNLYSISSLSISSSPSPLPLHSPDPVKGNSLPINYPETPHLWKNSETDFMTNQREQLNHNSFAHIAPINTKAITSPSRTATPKLQRFPQTISMNLNMNSNGHSSATSTIQPSCLSLSNNDSLDHTDVTPTSSHNYDLDFAVGLENLGNSCYMNCIIQCILGTHELTQIFLDDSYAKHININSKLGSKGILAKYFARLVHMMYKEQVDGSKKISISPIKFKLACGSVNSLFKTASQQDCQEFCQFLLDGLHEDLNQCGSNPPLKELSQEAEARREKLSLRIASSIEWERFLTTDFSVIVDLFQGQYASRLKCKVCSHTSTTYQPFTVLSIPIPKKNSRNNITIEDCFREFTKCENLEVDEQWLCPHCEKRQPSTKQLTITRLPRNLIVHLKRFDNLLNKNNDFVIYPFLLDLTPFWANDFDGVFPPGVNDDELPIRGQIPPFKYELYGVACHFGTLYGGHYTAYVKKGLKKGWLYFDDTKYKPVKNKADAINSNAYVLFYHRVYGV
partner: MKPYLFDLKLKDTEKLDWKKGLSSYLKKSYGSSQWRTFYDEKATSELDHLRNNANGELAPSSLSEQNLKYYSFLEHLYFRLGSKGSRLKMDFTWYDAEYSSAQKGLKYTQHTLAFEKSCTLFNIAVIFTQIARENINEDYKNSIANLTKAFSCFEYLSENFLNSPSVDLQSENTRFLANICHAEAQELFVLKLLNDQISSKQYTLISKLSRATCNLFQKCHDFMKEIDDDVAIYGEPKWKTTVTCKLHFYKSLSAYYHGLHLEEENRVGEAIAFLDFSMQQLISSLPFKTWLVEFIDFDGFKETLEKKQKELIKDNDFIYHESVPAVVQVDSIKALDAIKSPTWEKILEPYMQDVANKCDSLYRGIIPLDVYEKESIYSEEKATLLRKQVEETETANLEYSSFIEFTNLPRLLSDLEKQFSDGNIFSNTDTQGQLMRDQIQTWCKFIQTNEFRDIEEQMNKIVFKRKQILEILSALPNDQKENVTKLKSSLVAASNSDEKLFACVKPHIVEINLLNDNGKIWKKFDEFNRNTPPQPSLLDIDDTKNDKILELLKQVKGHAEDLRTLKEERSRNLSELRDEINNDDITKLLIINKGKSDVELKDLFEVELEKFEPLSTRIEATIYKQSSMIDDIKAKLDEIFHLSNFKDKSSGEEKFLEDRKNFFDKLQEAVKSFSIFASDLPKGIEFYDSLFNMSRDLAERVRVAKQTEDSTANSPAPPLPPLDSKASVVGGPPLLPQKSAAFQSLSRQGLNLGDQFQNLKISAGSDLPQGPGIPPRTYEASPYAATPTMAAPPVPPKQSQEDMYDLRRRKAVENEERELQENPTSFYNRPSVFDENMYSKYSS
B2: Vacuolar-sorting protein BRO1 (Saccharomyces cerevisiae), P48582 (parent)
chain: B1 partner
partner: B1 chain

Variants of: B1
Conditions: with bro1_yeast BRO1, P48582

effect of a mutation on the interaction	Variant
disrupting interaction	V824A

Variants of: B1
Conditions: with bro1_yeast BRO1, P48582
Remark: another data set of the same source

effect of a mutation on the interaction	Variant
decreasing interaction	I825A

Variants of: B1
Conditions: with bro1_yeast BRO1, P48582
Remark: another data set of the same source

effect of a mutation on the interaction	Variant
disrupting interaction	Y826A

Variants of: B1
Conditions: with bro1_yeast BRO1, P48582
Remark: another data set of the same source

effect of a mutation on the interaction	Variant
disrupting interaction	P827A

Variants of: B1
Conditions: with bro1_yeast BRO1, P48582
Remark: another data set of the same source

effect of a mutation on the interaction	Variant
disrupting interaction	L830A

Variants of: B1
Conditions: with bro1_yeast BRO1, P48582
Remark: another data set of the same source

effect of a mutation on the interaction	Variant
disrupting interaction	L829A

Variants of: B2
Conditions: with ubp4_yeast DOA4, P32571

effect of a mutation on the interaction	Variant
disrupting interaction	P831A

Variants of: B2
Conditions: with ubp4_yeast DOA4, P32571
Remark: another data set of the same source

effect of a mutation on the interaction	Variant
disrupting interaction	F834A

Variants of: B2
Conditions: with ubp4_yeast DOA4, P32571
Remark: another data set of the same source

effect of a mutation on the interaction	Variant
disrupting interaction	V833A

Variants of: B2
Conditions: with ubp4_yeast DOA4, P32571
Remark: another data set of the same source

effect of a mutation on the interaction	Variant
disrupting interaction	S832A
